Source: the Immune Epitope Database (IEDB)

Key:
Test in all cases: IEDB peptide-MHC binding, purified MHC/competitive/radioactivity; ≥ and ≤ were set here for values at or beyond the usual limits of such assays
Details in all cases: source organism: Bordetella pertussis
[1] = target: HLA-B*53:01
[2] = target: HLA-B*57:01
[3] = target: HLA-B*07:02
[4] = target: HLA-B*44:03
[5] = target: HLA-B*35:01
[6] = target: HLA-A*02:01

## NPGSLIAEV
[1]
  IC50: 58.7 µM

## VGGGEHGRW
[2]
  IC50: 57.9 µM

## TSKQDERNY
[2]
  IC50: ≥ 70.4 µM

## LPSIPGTSI
[3]
  IC50: 0.116 µM

## PAVALPRPL
[3]
  IC50: ≥ 77.5 µM

## YEAGFSLGS
[4]
  IC50: 35.4 µM

## QAAPLSITL
[5]
  IC50: 4.46 µM
[1]
  IC50: 4.49 µM

## TAFMSGRSL
[3]
  IC50: 56.1 µM

## DGPPSRPTT
[4]
  IC50: ≥ 70.1 µM

## FQTYALTGI
[6]
  IC50: 1.32 µM

## RSRVRALAW
[2]
  IC50: 0.0121 µM
